Numbering of substitutions follows the chain as printed. Numbers in names are those of the source.

From CN110606891A (L&L BIOPHARMA CO LTD, dated 2019) come the findings set out here.

The target in assay [1] is T1, 人CLDN18.2 (hCLDN18.2), claudin-18 isoform 2 [Homo sapiens], NP_001002026.1 (human).
T1 construct: the whole gene was transfected; also called 人CLDN18.2+ 细胞; hCLDN18.2+ cell
The experiment in a line: cell ELISA, hybridoma supernatant on hCLDN18.2+ cells.

The target of assay [2] is T2, 人CLDN18.1 (hCLDN18.1), claudin-18 isoform 1 precursor [Homo sapiens], NP_057453.1 (human, UniProt P56856 1-261).
T2 construct: No signal peptide limits stated for this entry; also called 人CLDN18.1+ 细胞; hCLDN18.1+ cell
T2 sequence: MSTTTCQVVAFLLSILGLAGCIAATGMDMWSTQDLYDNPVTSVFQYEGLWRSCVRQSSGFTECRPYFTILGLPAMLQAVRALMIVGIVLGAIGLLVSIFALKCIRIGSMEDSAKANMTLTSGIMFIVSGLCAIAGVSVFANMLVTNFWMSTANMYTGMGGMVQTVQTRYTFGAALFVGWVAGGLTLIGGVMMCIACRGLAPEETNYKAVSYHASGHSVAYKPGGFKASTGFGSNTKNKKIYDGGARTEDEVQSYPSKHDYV
Put plainly: cell ELISA, hybridoma supernatant on hCLDN18.1+ cells. (ELISA stands for enzyme-linked immunosorbent assay.)

Assay [3] deals with T1, 人CLDN18.2 (hCLDN18.2), claudin-18 …. The experiment in a line: cell-based or functional assay.
Assay [4] concerns the target T3, 鼠CLDN18.1 (mCLDN18.1), claudin-18 isoform A1.1 precursor, NP_062789.1 (mouse, UniProt P56857 1-264).
T3 construct: also called 鼠CLDN18.1+ 细胞; mCLDN18.1+ cell
T3 sequence: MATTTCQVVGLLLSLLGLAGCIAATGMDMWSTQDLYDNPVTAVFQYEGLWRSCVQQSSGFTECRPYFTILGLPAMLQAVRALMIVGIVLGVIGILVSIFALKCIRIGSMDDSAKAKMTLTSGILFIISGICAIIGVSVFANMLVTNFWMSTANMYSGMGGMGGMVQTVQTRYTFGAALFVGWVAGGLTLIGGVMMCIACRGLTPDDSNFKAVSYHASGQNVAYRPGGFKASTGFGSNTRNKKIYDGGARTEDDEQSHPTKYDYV
The experiment in a line: cell ELISA on mCLDN18.1+ cells.

In assay [5] the target is T4, 鼠CLDN18.2 (mCLDN18.2), claudin-18 isoform A2.1 [Mus musculus], NP_001181850.1 (mouse, UniProt P56857 10-264).
T4 construct: also called 鼠CLDN18.2+细胞; mCLDN18.2+ cell
T4 chain: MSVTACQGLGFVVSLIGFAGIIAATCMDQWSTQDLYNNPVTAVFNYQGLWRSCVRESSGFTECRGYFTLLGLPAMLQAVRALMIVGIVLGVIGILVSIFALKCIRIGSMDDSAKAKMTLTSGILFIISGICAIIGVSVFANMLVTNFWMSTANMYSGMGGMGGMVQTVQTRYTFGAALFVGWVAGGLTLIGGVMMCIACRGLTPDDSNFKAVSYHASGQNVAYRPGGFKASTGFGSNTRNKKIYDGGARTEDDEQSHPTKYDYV
The experiment in a line: cell ELISA on mCLDN18.2+ cells (Table 23).

In assay [6] the target is T2, 人CLDN18.1 (hCLDN18.1), claudin-18 …. Put plainly: cell ELISA on hCLDN18.1+ cells.
The target in assay [7] is T1, 人CLDN18.2 (hCLDN18.2), claudin-18 …. Put plainly: cell ELISA on hCLDN18.2+ cells (Table 16a).
Assay [8] addresses T4, 鼠CLDN18.2 (mCLDN18.2), claudin-18 …. Put plainly: cell ELISA on mCLDN18.2+ cells.
Assay [9] shares this target. Put plainly: cell ELISA on mCLDN18.2+ cells, against Ref.

B1: mab2 (初始杂交瘤克隆 F6B1, 上清) (antibody, V domains shown)
VH: EVQLLESGGGLVQPGGSLRLSCAASGFTFSSYGMSWVRQAPGKGLEWVAGIGSSGSDTWYADSVKGRFTISRDNSKNTLYLQMNSLRAEDTAVYYCAKDATNGYCWYTGRGSYSCGAHHIDAWGQGTLVTVSS
VL: SYELTQPPSVSVSPGQTARITCSGGSGSYGYYGWYQQKPGQAPVTVIYGTNKRPSGIPERFSGSSSGTTVTLTISGVQAEDEADYYCGGYDSSAGIFGGGTKLTVL
With B1, the “结合活性 (ELISA)” value in assay [1] is 0.176; in assay [2] it was 0.123.

B2: Ab36抗体 (antibody, human IgG1, kappa, V domains shown)
VH: QVQLVQSGAEVKKPGSSVKVSCKASGYAFSNYLIEWVKQAPGQGLEWIGLINPGSGGTNYNEKFKGKATITADKSTSTAYMELSSLRSEDTAVYYCARVYYGNTFAYWGQGTLVTVSS
VL: DIVMTQSPDSLAVSLGERATISCKSSQSLLNTGNNKNYLAWYQQKPGQPPKLLIYWASTRESGVPDRFSGSGSGTDFTLTISSLQAEDVAVYYCQNDYFYPFTFGQGTKLEIKR
notes: Ab6 with NS->NT in light CDR1 and heavy CDR3; hIgG1 / kappa
As to B2, the “CDC EC50 (人血清补体对hCLDN18.2+细胞, LDH)” value in assay [3] worked out at 1.75 µg/mL. The binding result in assay [4] is “no binding”. Moreover, in [5], the EC50 (as a rule, the concentration needed to bring the measured effect to its halfway point) worked out at 0.518 nM and the Emax was 2.18.

B3: 人源化Ab10抗体 (antibody, human IgG1, kappa, V domains shown)
VH: B2 VH with T104S
VL: B2 VL with T32S, N35Q, A40T
notes: Humanized, hIgG1 (356-358 DEL) / kappa; also called L14/H51
Turning to B3, the binding result in [4] was “no binding”. Also, in assay [5], it took 0.371 nM to reach a half-maximal effect (EC50) and the Emax is 2.27. In addition, in assay [6], the binding result is on record as “no binding”.

B4: Ab51抗体 (antibody, human IgG1, kappa, V domains shown)
VH: B2 VH with K38R, I48M, K67R, A68V, K74E
VL: B2 VL with S22N
notes: hIgG1 (DEL) / kappa; also called L21/H64 DEL
As to B4, the “CDC EC50 (人血清补体对hCLDN18.2+细胞, LDH)” value in assay [3] stood at 2.12 µg/mL. In addition, the binding result in assay [4] was “no binding”. In addition, in assay [5], it took 0.474 nM to reach a half-maximal effect (EC50) and the Emax was 1.91.

B5: Ab66 (L21, H61, hIgG1 Fc S239D/A330L/I332E) (antibody)
heavy: QVQLVQSGAEVKKPGSSVKVSCKASGYAFSNYLIEWVRQAPGQGLEWMGLINPGSGGTNYNEKFKGKVTITADKSTSTAYMELSSLRSEDTAVYYCARVYYGNTFAYWGQGTLVTVSSASTKGPSVFPLAPSSKSTSGGTAALGCLVKDYFPEPVTVSWNSGALTSGVHTFPAVLQSSGLYSLSSVVTVPSSSLGTQTYICNVNHKPSNTKVDKKVEPKSCDKTHTCPPCPAPELLGGPDVFLFPPKPKDTLMISRTPEVTCVVVDVSHEDPEVKFNWYVDGVEVHNAKTKPREEQYNSTYRVVSVLTVLHQDWLNGKEYKCKVSNKALPLPEEKTISKAKGQPREPQVYTLPPSRDELTKNQVSLTCLVKGFYPSDIAVEWESNGQPENNYKTTPPVLDSDGSFFLYSKLTVDKSRWQQGNVFSCSVMHEALHNHYTQKSLSLSPGK
light: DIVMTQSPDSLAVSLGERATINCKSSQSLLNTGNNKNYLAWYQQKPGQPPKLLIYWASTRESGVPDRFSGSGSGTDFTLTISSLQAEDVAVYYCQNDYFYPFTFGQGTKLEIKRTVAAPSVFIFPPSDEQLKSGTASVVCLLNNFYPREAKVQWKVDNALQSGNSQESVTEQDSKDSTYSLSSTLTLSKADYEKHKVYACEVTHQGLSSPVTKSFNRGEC
B5: in assay [3], the “CDC EC50 (人血清补体对hCLDN18.2+细胞, LDH)” value amounted to 0.927 µg/mL.

B6: Ab60 (L12, H51, hIgG1 Fc S239D/A330L/I332E) (antibody)
heavy: B5 heavy with R38K, M48I, V68A, T104S
light: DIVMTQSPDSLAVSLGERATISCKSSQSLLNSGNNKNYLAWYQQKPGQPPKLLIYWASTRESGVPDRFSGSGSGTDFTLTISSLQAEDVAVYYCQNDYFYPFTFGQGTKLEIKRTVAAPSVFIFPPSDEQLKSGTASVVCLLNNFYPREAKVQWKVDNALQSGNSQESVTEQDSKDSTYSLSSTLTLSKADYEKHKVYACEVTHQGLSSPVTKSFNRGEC
Take B6: in [3], the “ADCC EC50 (PBMC对hCLDN18.2+细胞, LDH)” value turned out to be 0.431 µg/mL and the “CDC EC50 (人血清补体对hCLDN18.2+细胞, LDH)” value came out at 0.973 µg/mL.

B7: Ab22 (轻链CDR1 NS-> TS, 重链 CDR3 NS-> NT) (antibody, V domains shown)
VH: EVMLVESGGGLVKPGGSLKLSCAASGFTFSSYTMSWVRQTPEKRLEWVATIIGGYGNTYYADSVKGRFTISRDSAKNTLYLQMISLRSEDTALYYCTRLGQTQRNAMDYWGQGTSVTVSS
VL: DILMTQSPSSLSVSAGEKVTMSCKSSQSLLNSGNQKNYLAWYQQKPGQPPKLLIYGASTRESGVPDTFTGSGSGTDFTLTISSVQAEDLAVYYCQNDYYYPFTFGAGTKLEL
Regarding B7, the EC50 in assay [7] was 1.37 nM.

B8: mab1 (初始杂交瘤克隆 F2A4, 上清) (antibody, V domains shown)
VH: EVQLLESGGGLVQPGGSLRLSCAASGFTFSSYGMGWVRQAPGKGLEWVAAITRDSSTNYGAAVKGRATISRDNSKNTLYLQMNSLRAEDTAVYYCAKDASNGYCWYTGRGSYSCGAHHIDAWGQGTLVTVSS
VL: SYELTQPPSVSVSPGQTARITCSGGYNGHYGWYQQKPGQAPVTVIYSNNQRPSGIPERFSGSSSGTTVTLTISGVQAEDEADYYCGGYDSSAGIFGGGTKLTVL
For the molecule B8, the “结合活性 (ELISA)” value in assay [1] is 1.62; in [2], 1.19.

B9: mab3 (初始杂交瘤克隆 C6F9, 上清) (antibody, V domains shown)
VH: EVQLLESGGGLVQPGGSLRLSCAASGFTFRSYAMMWVRQAPGKGLEWVGEISSTGGSTYYGSAVKGRATISRDNSKNTLYLQMNSLRAEDTAVYYCAKSTYGATWKSADSIDAWGQGTLVTVSS
VL: B8 VL with T43L
In the case of B9, the entries for the “结合活性 (ELISA)” value in assay [1] and in assay [2] were 0.671 and 0.448, respectively.

B10: anti-hCLDN18.2抗体mab5b (重组表达) (antibody, human IgG1, kappa, V domains shown)
VH: QVQLQQSGAELIGPGTSVKVSCKASGYAFSNYLIEWVKQRPEQGLEWIGLINPGSGGTNYNEKFKGKATLTADKSSSTAYMQLSSLTSDDSAVYFCARVYYGNSFAYWGQGTLVTVSA
VL: DIVMTQSPSSLTVTAGEKVTMSCKSSQSLLNSGNQKNYLTWYQQKPGQPPKLLIYWASTRESGVPDRFTGSGSGTHFTLTISSVQAEDLAVYYCQNDYFYPFTFGSGTKLEKKR
notes: also called 鼠源抗体mab5b
B10 showed an EC50 in assay [8] of 0.182 nM. Besides, the “结合活性 (EC50) 比Ref好的倍数” value in assay [9] is > 4 倍. In assay [5], this molecule showed an EC50 of 0.375 nM and an Emax of 2.17.
